Assay results: publication PMC8177864
Read-outs that look alike come from different tables or passages of the source.

B1: HRE consensus (dsDNA)
DNA 1: ACGGGTGGAACGCGGTGTTCTTTTGGCACG
DNA 2: CGTGCCAAAAGAACACCGCGTTCCACCCGT
B2: -499/-484 HRE (dsDNA)
DNA 1: ATCTAGAATAATTGGTATTAGAACAGGCTGCTTAAAACAGTTAA
DNA 2: TTAACTGTTTTAAGCAGCCTGTTCTAATACCAATTATTCTAGAT
B3: -159/-144 HRE (dsDNA)
DNA 1: GGGCTTGGCATGTTCTGTTAGCACTCTTTTAGATT
DNA 2: AATCTAAAAGAGTGCTAACAGAACATGCCAAGCCC

Legend:
[1] = biological target: T1, androgen receptor (rAR) (rat, UniProt P15207 1-902); assay: EMSA
[2] = biological target: T1, androgen receptor (rAR); assay: EMSA; remark: listed apart in the source

T1 sequence (P15207 whole entry S389L): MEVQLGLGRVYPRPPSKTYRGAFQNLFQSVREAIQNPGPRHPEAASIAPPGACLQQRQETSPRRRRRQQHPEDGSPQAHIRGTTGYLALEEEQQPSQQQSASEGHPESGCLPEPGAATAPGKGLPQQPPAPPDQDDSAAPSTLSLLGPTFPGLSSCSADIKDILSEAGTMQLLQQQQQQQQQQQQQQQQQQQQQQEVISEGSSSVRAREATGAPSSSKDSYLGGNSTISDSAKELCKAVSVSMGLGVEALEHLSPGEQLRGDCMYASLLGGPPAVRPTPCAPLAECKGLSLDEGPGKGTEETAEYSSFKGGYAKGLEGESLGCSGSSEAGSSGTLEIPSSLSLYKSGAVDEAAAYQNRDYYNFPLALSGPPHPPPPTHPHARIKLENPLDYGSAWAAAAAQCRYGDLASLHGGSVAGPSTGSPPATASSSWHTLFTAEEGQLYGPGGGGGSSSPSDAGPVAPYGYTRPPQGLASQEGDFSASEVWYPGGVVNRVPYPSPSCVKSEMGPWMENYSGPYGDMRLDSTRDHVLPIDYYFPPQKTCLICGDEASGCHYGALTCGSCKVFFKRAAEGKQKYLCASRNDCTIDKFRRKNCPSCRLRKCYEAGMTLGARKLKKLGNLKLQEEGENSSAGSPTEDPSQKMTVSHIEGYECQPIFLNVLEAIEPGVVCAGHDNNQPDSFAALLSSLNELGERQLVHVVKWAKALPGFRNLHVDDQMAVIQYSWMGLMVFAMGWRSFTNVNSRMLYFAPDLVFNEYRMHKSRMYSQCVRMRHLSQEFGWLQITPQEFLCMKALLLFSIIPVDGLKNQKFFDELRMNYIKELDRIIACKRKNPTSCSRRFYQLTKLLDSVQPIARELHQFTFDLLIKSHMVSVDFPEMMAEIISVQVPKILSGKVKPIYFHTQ

Binder	binding result [1]	binding result [2]
B1	binds	–
B2	–	no binding
B3	–	no binding
